Measurements as given in patent publication US8431161B2, “Microparticle and pharmaceutical composition thereof” (Toray Industries, Inc., priority 2008, dated 2013).
Like-named read-outs stand apart in the source and are kept apart here.

Experiments:
[1] = Hypodermic administration of Exendin-4-encapsulating microparticles in SCID mouse, Exendin-4 in plasma; assay type: in vivo; conditions: 700 μg/0.2 ml
Description: (§1) The supernatant was centrifugally separated again for 5 minutes at 80×g, and the remaining particles were precipitated, and the supernatant was removed.
This solution was hypodermically injected in the back of 8-week-old SCID mouse (CB17/lcr-Prkdcscid/CrlCrlk) (from Crea Japan Inc.), and the blood was sampled at specific intervals from the caudal vein.

[2] = mouse, in vivo
Description: as §1

[3] = Body weight changes of pituitary gland extracted mouse after hGH microparticles; assay type: in vivo; conditions: hypodermic administration
[4] = mouse, in vivo; remark: listed apart in the source
Description: 300 mg of the prepared microparticles was suspended and dispersed in 3 ml of phosphate physiological buffer solution (PBS), and centrifuged for 5 minutes at 80×g to precipitate microparticles, and the supernatant was transferred into other tube. The supernatant was centrifuged again for 5 minutes at 80×g to precipitate the remaining particles, and the supernatant was removed. By re-dispersing in 1 ml of PBS after first time of centrifugal precipitation and second time of centrifugal precipitation, the same centrifugal cleaning operation was repeated three times, and the growth hormone not encapsulated in the microparticles were removed. Finally, the precipitation was dispersed again in 200 μl of PBS, and an administration solution was obtained.
This solution was injected hypodermically at two positions in the back of 10-week male Balb/C mouse, and the blood was sampled at specific time intervals from the caudal vein. In the sampled blood, heparin of final concentration of 3.31 U/ml was added, and plasma was collected by centrifugal separation for 5 minutes at 5,000 rpm, and the concentration of growth hormone in plasma was measured by using an ELISA kit.
By way of comparison, a non-granulated human growth hormone protein solution (700 μg/0.2 ml) was hypodermically administered in mouse, and the blood was sampled similarly. […]

Exendin-4 [non-granulated Exendin-4]
blood level in 1 hour after administration (Exendin-4 in plasma) [1]: very high
time in which blood level dropped to a level before administration [2]: a day

human growth hormone [non-granulated human growth hormone]
body weight increase [3]: about 5%
time in which blood level dropped to a level before administration [4]: a day
